Here are results for two substances from PMC11439726.

In test [1] the target is recombinant human FcRn protein (neonatal Fc receptor) (human) (UniProt P55899).
The target is the same in test [2]. The source holds these as a separate data set.

“CR3022 (human recombinant monoclonal antibody, wildtype IgG1-Fc)”: the decrease of basal-to-apical transcytosis of CR3022 (400 µg) across WD-HAE cultures with 10-fold excess IVIG (4 mg) as competitor in test [1] came out at 50%.

In the case of “CR3022-LS (CR3022 with Fc containing the LS mutation) (antibody)”, the reduction of basal-to-apical transcytosis of CR3022-LS across WD-HAE cultures with excess IVIG as competitor in test [2] came to 20%.
